Laboratory results: patent US20250262210A1 (TRUSTEES OF COLUMBIA UNIVERSITY IN THE CITY OF NEW YORK, published 2025)

Legend:
CDK5RAP2 = CDK5RAP2 (human, UniProt Q96SN8 1-1893, limits assumed); experiment: IP/MS, LZTR1 wild type-FLAG, U87
Summary of the method: (§1)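 Read-out: spectral counts from LC-MS/MS (Orbitrap Fusion) after MaxQuant identification. Variable modifications were Met oxidation, protein N-terminal acetylation and N/Q deamidation.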

POLR3A = target: T1, POLR3A (human, UniProt O14802 1-1390); experiment: IP/MS, LZTR1 wild type-FLAG, U87
T1 sequence (looked up): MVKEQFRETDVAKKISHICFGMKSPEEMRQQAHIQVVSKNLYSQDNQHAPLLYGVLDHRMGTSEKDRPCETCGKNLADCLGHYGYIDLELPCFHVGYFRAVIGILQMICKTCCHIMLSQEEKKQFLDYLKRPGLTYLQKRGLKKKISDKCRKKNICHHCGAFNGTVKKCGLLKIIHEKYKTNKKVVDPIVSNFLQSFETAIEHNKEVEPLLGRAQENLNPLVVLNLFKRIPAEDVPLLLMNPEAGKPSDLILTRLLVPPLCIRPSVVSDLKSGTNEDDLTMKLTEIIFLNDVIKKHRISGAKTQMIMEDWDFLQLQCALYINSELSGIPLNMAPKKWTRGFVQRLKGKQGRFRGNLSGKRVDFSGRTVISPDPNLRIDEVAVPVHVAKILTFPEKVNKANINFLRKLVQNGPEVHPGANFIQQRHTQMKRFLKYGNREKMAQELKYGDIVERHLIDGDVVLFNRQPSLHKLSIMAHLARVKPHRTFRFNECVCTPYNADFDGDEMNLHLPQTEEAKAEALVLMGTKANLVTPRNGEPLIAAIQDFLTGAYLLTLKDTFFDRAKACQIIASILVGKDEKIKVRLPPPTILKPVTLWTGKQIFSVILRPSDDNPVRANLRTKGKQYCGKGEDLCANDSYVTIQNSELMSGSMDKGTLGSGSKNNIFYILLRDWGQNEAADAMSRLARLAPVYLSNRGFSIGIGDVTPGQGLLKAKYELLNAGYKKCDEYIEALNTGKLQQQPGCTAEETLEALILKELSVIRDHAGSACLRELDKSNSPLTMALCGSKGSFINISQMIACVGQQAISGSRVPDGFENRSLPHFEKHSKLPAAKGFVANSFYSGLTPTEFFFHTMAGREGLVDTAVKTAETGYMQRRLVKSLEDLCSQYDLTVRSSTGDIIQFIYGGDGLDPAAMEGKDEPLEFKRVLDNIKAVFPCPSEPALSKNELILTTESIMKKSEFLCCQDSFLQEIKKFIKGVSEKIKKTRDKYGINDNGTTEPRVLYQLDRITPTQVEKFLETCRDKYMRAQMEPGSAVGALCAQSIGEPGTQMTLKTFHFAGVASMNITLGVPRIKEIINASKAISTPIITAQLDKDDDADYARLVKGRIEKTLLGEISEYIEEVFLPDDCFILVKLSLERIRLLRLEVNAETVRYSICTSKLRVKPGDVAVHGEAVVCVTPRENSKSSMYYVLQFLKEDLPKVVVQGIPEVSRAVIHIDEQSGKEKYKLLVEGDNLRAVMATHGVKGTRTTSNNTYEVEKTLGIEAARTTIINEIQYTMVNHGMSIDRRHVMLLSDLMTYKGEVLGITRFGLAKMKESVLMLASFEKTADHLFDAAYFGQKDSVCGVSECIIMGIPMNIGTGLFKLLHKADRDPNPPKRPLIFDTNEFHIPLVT
Summary of the method: as §1

CDK5RAP2, sequence (Q96SN8 whole entry, the tested form may be a part): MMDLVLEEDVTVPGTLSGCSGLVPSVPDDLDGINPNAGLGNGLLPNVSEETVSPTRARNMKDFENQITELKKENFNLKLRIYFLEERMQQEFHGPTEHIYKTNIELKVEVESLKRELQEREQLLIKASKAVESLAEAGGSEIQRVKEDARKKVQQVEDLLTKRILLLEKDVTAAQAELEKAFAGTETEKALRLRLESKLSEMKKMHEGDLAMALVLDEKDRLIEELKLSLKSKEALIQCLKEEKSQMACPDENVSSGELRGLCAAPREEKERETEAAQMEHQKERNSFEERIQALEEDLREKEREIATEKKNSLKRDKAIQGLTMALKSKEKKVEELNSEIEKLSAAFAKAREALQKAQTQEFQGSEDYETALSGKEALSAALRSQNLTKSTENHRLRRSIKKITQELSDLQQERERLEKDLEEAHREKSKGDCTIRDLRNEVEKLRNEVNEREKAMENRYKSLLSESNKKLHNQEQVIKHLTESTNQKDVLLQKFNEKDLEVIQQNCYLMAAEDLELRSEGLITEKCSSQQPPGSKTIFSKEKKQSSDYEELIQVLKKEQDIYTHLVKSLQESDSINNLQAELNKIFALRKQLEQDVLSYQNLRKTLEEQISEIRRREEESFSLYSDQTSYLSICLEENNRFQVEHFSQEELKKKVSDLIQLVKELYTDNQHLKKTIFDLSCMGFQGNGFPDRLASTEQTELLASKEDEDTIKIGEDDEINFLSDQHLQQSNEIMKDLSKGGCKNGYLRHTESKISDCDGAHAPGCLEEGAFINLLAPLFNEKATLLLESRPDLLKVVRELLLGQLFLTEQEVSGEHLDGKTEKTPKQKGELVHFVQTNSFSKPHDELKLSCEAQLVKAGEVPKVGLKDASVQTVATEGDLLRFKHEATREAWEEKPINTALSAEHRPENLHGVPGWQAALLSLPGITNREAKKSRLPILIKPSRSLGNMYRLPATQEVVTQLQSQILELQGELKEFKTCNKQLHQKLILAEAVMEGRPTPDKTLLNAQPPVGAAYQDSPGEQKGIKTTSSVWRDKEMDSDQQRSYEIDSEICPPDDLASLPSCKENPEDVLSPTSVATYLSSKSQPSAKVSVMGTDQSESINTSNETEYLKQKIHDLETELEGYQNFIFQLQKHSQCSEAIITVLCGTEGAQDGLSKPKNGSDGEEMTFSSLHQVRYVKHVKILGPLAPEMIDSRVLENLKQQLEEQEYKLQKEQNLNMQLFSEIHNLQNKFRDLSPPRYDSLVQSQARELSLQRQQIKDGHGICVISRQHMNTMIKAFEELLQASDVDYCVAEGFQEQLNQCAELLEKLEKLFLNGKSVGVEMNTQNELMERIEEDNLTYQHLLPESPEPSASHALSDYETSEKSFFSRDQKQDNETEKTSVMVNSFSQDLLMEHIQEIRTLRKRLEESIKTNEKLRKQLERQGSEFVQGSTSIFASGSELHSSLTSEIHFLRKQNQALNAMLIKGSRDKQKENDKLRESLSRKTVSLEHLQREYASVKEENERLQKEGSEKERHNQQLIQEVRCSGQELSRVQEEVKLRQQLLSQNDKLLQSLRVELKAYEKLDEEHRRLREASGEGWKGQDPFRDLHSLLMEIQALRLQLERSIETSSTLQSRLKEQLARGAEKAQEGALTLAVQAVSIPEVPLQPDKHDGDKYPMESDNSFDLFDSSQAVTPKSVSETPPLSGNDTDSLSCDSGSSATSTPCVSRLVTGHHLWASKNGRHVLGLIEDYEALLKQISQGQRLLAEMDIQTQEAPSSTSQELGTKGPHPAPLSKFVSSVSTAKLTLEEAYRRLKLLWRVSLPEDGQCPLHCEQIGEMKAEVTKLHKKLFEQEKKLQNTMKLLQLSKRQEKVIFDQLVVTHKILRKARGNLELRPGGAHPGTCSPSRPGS

B1: LZTR1-FLAG (other, human, UniProt Q8N653 1-840, looked up)
chain: MAGPGSTGGQIGAAALAGGARSKVAPSVDFDHSCSDSVEYLTLNFGPFETVHRWRRLPPCDEFVGARRSKHTVVAYKDAIYVFGGDNGKTMLNDLLRFDVKDCSWCRAFTTGTPPAPRYHHSAVVYGSSMFVFGGYTGDIYSNSNLKNKNDLFEYKFATGQWTEWKIEGRLPVARSAHGATVYSDKLWIFAGYDGNARLNDMWTIGLQDRELTCWEEVAQSGEIPPSCCNFPVAVCRDKMFVFSGQSGAKITNNLFQFEFKDKTWTRIPTEHLLRGSPPPPQRRYGHTMVAFDRHLYVFGGAADNTLPNELHCYDVDFQTWEVVQPSSDSEVGGAEVPERACASEEVPTLTYEERVGFKKSRDVFGLDFGTTSAKQPTQPASELPSGRLFHAAAVISDAMYIFGGTVDNNIRSGEMYRFQFSCYPKCTLHEDYGRLWESRQFCDVEFVLGEKEECVQGHVAIVTARSRWLRRKITQARERLAQKLEQEAAPVPREAPGVAAGGARPPLLHVAIREAEARPFEVLMQFLYTDKIKYPRKGHVEDVLLIMDVYKLALSFQLCRLEQLCRQYIEASVDLQNVLVVCESAARLQLSQLKEHCLNFVVKESHFNQVIMMKEFERLSSPLIVEIVRRKQQPPPRTPLDQPVDIGTSLIQDMKAYLEGAGAEFCDITLLLDGHPRPAHKAILAARSSYFEAMFRSFMPEDGQVNISIGEMVPSRQAFESMLRYIYYGEVNMPPEDSLYLFAAPYYYGFYNNRLQAYCKQNLEMNVTVQNVLQILEAADKTQALDMKRHCLHIIVHQFTKVSKLPTLRSLSQQLLLDIIDSLASHISDKQCAELGADI
notes: Expressed in HEK 293T, HeLa or U87 cells; used as cell lysate; also called LZTR1 wild type-FLAG; LZTR1 WT; not shown: FLAG tag at the C-terminus
binding result (CDK5RAP2): binds
binding result (POLR3A): binds
